The target of test [1] is thCENP-H/K complex (full-length thCENP-H with full-length thCENP-K) (Thielavia terrestris). The test is described as follows: AUC; sedimentation velocity, 4°C, 42 000 rpm, PBS; continuous c(s) model in SEDFIT.
The target of test [2] is C. thermophilum CENP-I residues 1-229 (ctCENP-I^NT), untagged. The test is described as follows: GST pull-down. As to conditions: in the presence of thCENP-K; parent: est. 1.0; read off a plot.
In test [3] the target is full-length T. terrestris CENP-K (thCENP-K) (Thielavia terrestris). Kind of test: AUC; sedimentation velocity, 4°C, 42 000 rpm, PBS; continuous c(s) model in SEDFIT.
The next test deals with T1, GST-thCENP-K^ΔN75.
T1 chain: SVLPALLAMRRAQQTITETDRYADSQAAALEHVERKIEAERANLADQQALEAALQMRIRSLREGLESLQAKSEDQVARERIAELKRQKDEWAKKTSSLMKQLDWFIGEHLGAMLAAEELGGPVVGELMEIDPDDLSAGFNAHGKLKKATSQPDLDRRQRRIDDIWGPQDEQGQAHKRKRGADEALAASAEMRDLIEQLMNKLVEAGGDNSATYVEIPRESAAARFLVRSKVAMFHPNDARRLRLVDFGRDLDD
Kind of test: GST pull-down. As to conditions: chain shown with the change;; parent: est. 1.0; read off a plot.

For test [4], the target named is T2, GST-thCENP-K^FL (full-length T. terrestris CENP-K with N-terminal GST).
T2 chain: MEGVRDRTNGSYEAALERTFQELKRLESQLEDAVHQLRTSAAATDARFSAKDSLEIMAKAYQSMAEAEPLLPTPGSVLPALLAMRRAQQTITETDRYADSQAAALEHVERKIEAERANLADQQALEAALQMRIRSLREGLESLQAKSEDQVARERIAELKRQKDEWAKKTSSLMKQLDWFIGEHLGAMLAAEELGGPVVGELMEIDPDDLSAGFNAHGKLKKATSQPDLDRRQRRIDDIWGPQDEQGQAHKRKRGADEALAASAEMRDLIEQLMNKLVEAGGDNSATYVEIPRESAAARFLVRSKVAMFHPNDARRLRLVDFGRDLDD
The test is described as follows: GST pull-down. As to conditions: chain shown with the change;; parent: est. 1.0; read off a plot.

Another test concerns the target T3, GST-ctCENP-I^NT.
T3 chain: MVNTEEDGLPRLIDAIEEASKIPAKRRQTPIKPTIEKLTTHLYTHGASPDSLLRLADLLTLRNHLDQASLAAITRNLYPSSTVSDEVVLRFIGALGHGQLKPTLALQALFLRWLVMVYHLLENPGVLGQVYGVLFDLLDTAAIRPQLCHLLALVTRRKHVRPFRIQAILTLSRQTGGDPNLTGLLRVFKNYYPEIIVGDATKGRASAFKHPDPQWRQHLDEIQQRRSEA
Kind of test: GST pull-down. Particulars: chain shown with the change;; parent: est. 1.0; read off a plot.

Regarding “C. thermophilum CENP-I residues 1-229 (ctCENP-I^NT), untagged (domain or fragment)”, in test [1], the stoichiometry N worked out at 1.

For GST-thCENP-H WT I205A; L219A, the ratio to parent in test [2] was found to be 0.63.

For the molecule GST-thCENP-H WT R220E; L224A, in test [2], the ratio to parent is 0.2.

“full-length T. terrestris CENP-H (thCENP-H) (natural protein)” came in with a stoichiometry N in test [3] of 1.

B1: full-length T. terrestris CENP-H (thCENP-H) L219A (protein)
chain: MAATASTATPTPLPHFTEREASVLALYDRLRQLQLELALLTSQRSHGVIETSASRRAENDLAVDEARLLEARATLDLRDSVVENVVTLQPILNAVHHATHASPLERDLLPYTEQRDATATKVASLCADLDSAWGRLAELETESLRATQRNMELASEVLRLAAGTNDKTPSQLEGGRLEMELAGHEAEMKSNRRRWRIMKGAASAIVAGSGIDWVRDERARDLVLDLPD
Regarding B1, the ratio to parent amounted to 0.68 with GST-thCENP-K^ΔN75 and 0.89 in test [4].

B2: full-length T. terrestris CENP-H (thCENP-H) I205A; I211A (protein)
chain: MAATASTATPTPLPHFTEREASVLALYDRLRQLQLELALLTSQRSHGVIETSASRRAENDLAVDEARLLEARATLDLRDSVVENVVTLQPILNAVHHATHASPLERDLLPYTEQRDATATKVASLCADLDSAWGRLAELETESLRATQRNMELASEVLRLAAGTNDKTPSQLEGGRLEMELAGHEAEMKSNRRRWRIMKGAASAAVAGSGADWVRDERLRDLVLDLPD
Turning to B2, the ratio to parent is 0.33 with GST-thCENP-K^ΔN75, 0.88 in test [4] and 1.1 in the test with GST-ctCENP-I^NT.

B3: full-length T. terrestris CENP-H (thCENP-H) I205A (protein)
chain: MAATASTATPTPLPHFTEREASVLALYDRLRQLQLELALLTSQRSHGVIETSASRRAENDLAVDEARLLEARATLDLRDSVVENVVTLQPILNAVHHATHASPLERDLLPYTEQRDATATKVASLCADLDSAWGRLAELETESLRATQRNMELASEVLRLAAGTNDKTPSQLEGGRLEMELAGHEAEMKSNRRRWRIMKGAASAAVAGSGIDWVRDERLRDLVLDLPD
Turning to B3, the ratio to parent with GST-thCENP-K^ΔN75 was 0.65; in test [4] it was 0.94; with GST-ctCENP-I^NT it was 1.1.

B4: full-length T. terrestris CENP-H (thCENP-H) R220E (protein)
chain: MAATASTATPTPLPHFTEREASVLALYDRLRQLQLELALLTSQRSHGVIETSASRRAENDLAVDEARLLEARATLDLRDSVVENVVTLQPILNAVHHATHASPLERDLLPYTEQRDATATKVASLCADLDSAWGRLAELETESLRATQRNMELASEVLRLAAGTNDKTPSQLEGGRLEMELAGHEAEMKSNRRRWRIMKGAASAIVAGSGIDWVRDERLEDLVLDLPD
As for B4, the results for the ratio to parent (with GST-thCENP-K^ΔN75; in test [4]; with GST-ctCENP-I^NT) were 1.1, 0.97 and 0.32, respectively.

B5: full-length T. terrestris CENP-H (thCENP-H) I211A (protein)
chain: MAATASTATPTPLPHFTEREASVLALYDRLRQLQLELALLTSQRSHGVIETSASRRAENDLAVDEARLLEARATLDLRDSVVENVVTLQPILNAVHHATHASPLERDLLPYTEQRDATATKVASLCADLDSAWGRLAELETESLRATQRNMELASEVLRLAAGTNDKTPSQLEGGRLEMELAGHEAEMKSNRRRWRIMKGAASAIVAGSGADWVRDERLRDLVLDLPD
In the case of B5, the ratio to parent in the test with GST-thCENP-K^ΔN75 stood at 0.7; in test [4] it was 0.95; in the test with GST-ctCENP-I^NT, 1.2.

B6: full-length T. terrestris CENP-H (thCENP-H) R220E; L224A (protein)
chain: MAATASTATPTPLPHFTEREASVLALYDRLRQLQLELALLTSQRSHGVIETSASRRAENDLAVDEARLLEARATLDLRDSVVENVVTLQPILNAVHHATHASPLERDLLPYTEQRDATATKVASLCADLDSAWGRLAELETESLRATQRNMELASEVLRLAAGTNDKTPSQLEGGRLEMELAGHEAEMKSNRRRWRIMKGAASAIVAGSGIDWVRDERLEDLVADLPD
Turning to B6, the figures for the ratio to parent in the test with GST-thCENP-K^ΔN75 and with GST-ctCENP-I^NT were 1.1 and 0.13, respectively.

B7: full-length T. terrestris CENP-H (thCENP-H) W213A (protein)
chain: MAATASTATPTPLPHFTEREASVLALYDRLRQLQLELALLTSQRSHGVIETSASRRAENDLAVDEARLLEARATLDLRDSVVENVVTLQPILNAVHHATHASPLERDLLPYTEQRDATATKVASLCADLDSAWGRLAELETESLRATQRNMELASEVLRLAAGTNDKTPSQLEGGRLEMELAGHEAEMKSNRRRWRIMKGAASAIVAGSGIDAVRDERLRDLVLDLPD
For the molecule B7, the ratio to parent in test [4] turned out to be 0.97; in the test with GST-ctCENP-I^NT, 1.2.

B8: full-length T. terrestris CENP-H (thCENP-H) L224A (protein)
chain: MAATASTATPTPLPHFTEREASVLALYDRLRQLQLELALLTSQRSHGVIETSASRRAENDLAVDEARLLEARATLDLRDSVVENVVTLQPILNAVHHATHASPLERDLLPYTEQRDATATKVASLCADLDSAWGRLAELETESLRATQRNMELASEVLRLAAGTNDKTPSQLEGGRLEMELAGHEAEMKSNRRRWRIMKGAASAIVAGSGIDWVRDERLRDLVADLPD
As to B8, the ratio to parent with GST-thCENP-K^ΔN75 worked out at 1.1; with GST-ctCENP-I^NT it was 0.36.

B9: full-length T. terrestris CENP-H (thCENP-H) I211A; L219A (protein)
chain: MAATASTATPTPLPHFTEREASVLALYDRLRQLQLELALLTSQRSHGVIETSASRRAENDLAVDEARLLEARATLDLRDSVVENVVTLQPILNAVHHATHASPLERDLLPYTEQRDATATKVASLCADLDSAWGRLAELETESLRATQRNMELASEVLRLAAGTNDKTPSQLEGGRLEMELAGHEAEMKSNRRRWRIMKGAASAIVAGSGADWVRDERARDLVLDLPD
B9: the ratio to parent came to 0.46 with GST-thCENP-K^ΔN75 and 1.2 with GST-ctCENP-I^NT.

B10: full-length T. terrestris CENP-H (thCENP-H) I205A; L219A (protein)
chain: MAATASTATPTPLPHFTEREASVLALYDRLRQLQLELALLTSQRSHGVIETSASRRAENDLAVDEARLLEARATLDLRDSVVENVVTLQPILNAVHHATHASPLERDLLPYTEQRDATATKVASLCADLDSAWGRLAELETESLRATQRNMELASEVLRLAAGTNDKTPSQLEGGRLEMELAGHEAEMKSNRRRWRIMKGAASAAVAGSGIDWVRDERARDLVLDLPD
B10: the ratio to parent was 0.36 with GST-thCENP-K^ΔN75, 0.9 in test [4] and 1.1 with GST-ctCENP-I^NT.

A word on the stoichiometry N: it is a count of units in the complex or per binding partner.
